Reference: the supplement of paper PMC7877785
± gives the uncertainty stated by the source.

Assay: self-splicing fitness, log relative to wild type (ln ratio); higher = more splicing; Tetrahymena group I intron in knt gene, E. coli kanamycin selection, DiMSum; sequences stand for … in CUCUCU…GGAGGGAAAAGUUAUCAGGCAUGCACCUGGUAGCUAGUCUUUAAACCAAUAGAUUGCAUCGGUUUAAAAGGCAAGACCGUCAAAUUGCGGGAAAGGGGUCAACAGCCGUUCAGUACCAAGUCUCAGGGGAAACUUUGAGAUGGCCUUGCAAAGGGUAUGGUAAUAAGCUGACGGACAUGGUCCUAACCACGCAGCCAAGUCCUAAGUCAACAGAUCUUCUGUUGAUAUGGAUGCAGUUCACAGACUAAAUGUCGGUCGGGGAAGAUGUAUUCUUCUCAUAAGAUAUAGUCGGACCUCUCCUUAAUGGGAGCUAGCGGAUGAAGUGAUGCAACACUGGAGCCGCUGGGAACUAAUUUGUAUGCGAAAGUAUAUUGAUUAGUUUUGGAGUACUCGUGGUCG
Summary of the method: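 Library with all eight P1ex-region intron nucleotides randomised, intron inside the knt kanamycin-resistance gene on pET-22b(+), in E. coli BL21(DE3). Cells grew overnight at 37°C or 30°C on LB agar with or without 25 μg/mL kanamycin (plus 100 μg/mL carbenicillin, 50 μM IPTG, 0.2% rhamnose), in six replicate transformations. Pooled colonies were amplicon-sequenced on Illumina HiSeq 2500. DiMSum fitness is the error-weighted combination of wild-type-normalised replicate fold changes, kanamycin versus none.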

Row | Sequence | self-splicing fitness (ln) (30 °C) | self-splicing fitness (ln) (37 °C)
1 | CUUGAGCAAUAUUACGAGCG | -2.14 ± 0.1 | -0.889 ± 0.09
2 | CAUCAGCAAUAUUACGAUCG | -0.307 ± 0.12 | -0.125 ± 0.15
3 | CGGCAGCAAUAUUACGGACU | -2.26 ± 0.17 | -1.34 ± 0.2
4 | CAUUAGCAAUAUUACGCCGC | -1.43 ± 0.29 | –
5 | GCCAAGCAAUAUUACGUACU | -1.15 ± 0.098 | -0.739 ± 0.12
6 | CCGGAGCAAUAUUACGGGCU | -3.52 ± 0.35 | -3.75 ± 0.42
7 | GGGGAGCAAUAUUACGAUGA | -2.02 ± 0.3 | -2.57 ± 0.37
8 | UUUGAGCAAUAUUACGAAAA | -2.31 ± 0.28 | -1.21 ± 0.24
9 | UGCAAGCAAUAUUACGUGAG | -3.87 ± 0.21 | -2.72 ± 0.18
10 | CCCUAGCAAUAUUACGGGAU | -3.82 ± 0.21 | -3.12 ± 0.26
11 | AGCUAGCAAUAUUACGUAUA | -2.28 ± 0.15 | -2.12 ± 0.23
12 | GCUCAGCAAUAUUACGCCAU | -3.28 ± 0.48 | -2.26 ± 0.36
13 | AACAAGCAAUAUUACGCGCU | -0.49 ± 0.07 | -0.454 ± 0.078
14 | CUGGAGCAAUAUUACGCGCG | -2.2 ± 0.14 | -0.917 ± 0.13
15 | CCCGAGCAAUAUUACGUCUA | -3.33 ± 0.2 | -2.42 ± 0.22
16 | UGCCAGCAAUAUUACGGUCC | -0.84 ± 0.2 | 0.136 ± 0.2
17 | ACGCAGCAAUAUUACGGUGG | -2.52 ± 0.11 | -1.17 ± 0.11
18 | CUCCAGCAAUAUUACGCCUU | -2.33 ± 0.18 | -2.29 ± 0.27
19 | CACAAGCAAUAUUACGGCCU | -4.49 ± 0.24 | -2.74 ± 0.24
20 | GUUAAGCAAUAUUACGUCUU | -0.682 ± 0.09 | -0.56 ± 0.11
21 | AGGGAGCAAUAUUACGUCUU | -2.53 ± 0.15 | -0.226 ± 0.15
22 | GAAAAGCAAUAUUACGAAGU | -2.98 ± 0.18 | -0.976 ± 0.2
23 | AGAGAGCAAUAUUACGUCUU | -2.88 ± 0.19 | -2 ± 0.18
24 | GCCAAGCAAUAUUACGCGGC | -3.04 ± 0.22 | -3.03 ± 0.43
25 | ACUAAGCAAUAUUACGGUCU | -1.45 ± 0.072 | -0.907 ± 0.082
26 | CGACAGCAAUAUUACGGGUA | -4.49 ± 0.28 | -1.49 ± 0.12

Row | Sequence | self-splicing fitness (ln) (30 °C) | self-splicing fitness (ln) (37 °C)
27 | CCAAAGCAAUAUUACGUCUC | -3.08 ± 0.13 | -2.89 ± 0.092
28 | CGUGAGCAAUAUUACGUGCA | -1.36 ± 0.13 | 0.0971 ± 0.14
29 | GUAGAGCAAUAUUACGCGAA | -1.12 ± 0.058 | -0.709 ± 0.077
30 | GAUCAGCAAUAUUACGCACU | 0.181 ± 0.092 | 0.467 ± 0.1
31 | UCCUAGCAAUAUUACGAUCA | -2.01 ± 0.1 | -1.36 ± 0.096
32 | CCAAAGCAAUAUUACGAUUC | -3 ± 0.31 | -1.71 ± 0.34
33 | CAGCAGCAAUAUUACGGUGG | -1.17 ± 0.067 | -0.196 ± 0.088
34 | ACCAAGCAAUAUUACGUUUC | -4.28 ± 0.17 | -2.55 ± 0.14
35 | GGGCAGCAAUAUUACGGGUA | – | -2.55 ± 0.35
36 | UUGUAGCAAUAUUACGACCA | -0.463 ± 0.16 | -0.51 ± 0.17
37 | ACAAAGCAAUAUUACGCACG | -1.96 ± 0.12 | -0.724 ± 0.1
38 | GAUUAGCAAUAUUACGUACU | -0.632 ± 0.073 | 0.0191 ± 0.088
39 | CGACAGCAAUAUUACGAGAG | -3.42 ± 0.12 | -1.95 ± 0.11
40 | UUAGAGCAAUAUUACGGUCC | -2.67 ± 0.42 | –
41 | UCCGAGCAAUAUUACGGCGU | -1.17 ± 0.081 | -0.438 ± 0.11
42 | CCCUAGCAAUAUUACGAGCU | -4.02 ± 0.24 | -1.87 ± 0.2
43 | GACUAGCAAUAUUACGUACU | -1.13 ± 0.094 | -0.372 ± 0.14
44 | GCAUAGCAAUAUUACGGGUC | -3.17 ± 0.14 | -2.71 ± 0.17
45 | CGAUAGCAAUAUUACGCAUG | -1.79 ± 0.07 | -0.761 ± 0.069
46 | UCAUAGCAAUAUUACGAGCU | -2.69 ± 0.26 | -2.72 ± 0.3
47 | UGGCAGCAAUAUUACGCAUA | -0.869 ± 0.096 | -0.265 ± 0.1
48 | UGCUAGCAAUAUUACGUAAC | -3.31 ± 0.28 | -1.84 ± 0.29
49 | ACUGAGCAAUAUUACGUAGC | -3.07 ± 0.12 | -1.66 ± 0.13
50 | UGACAGCAAUAUUACGAAGC | -3.56 ± 0.37 | -3.61 ± 0.39
51 | GUGAAGCAAUAUUACGGUCG | -0.124 ± 0.063 | -0.0595 ± 0.085
52 | ACUAAGCAAUAUUACGUGUC | -3.48 ± 0.14 | -3.57 ± 0.21

Row | Sequence | self-splicing fitness (ln) (30 °C) | self-splicing fitness (ln) (37 °C)
53 | CCCGAGCAAUAUUACGAGUC | -2.67 ± 0.31 | -1.69 ± 0.35
54 | UUUGAGCAAUAUUACGACUA | -1.98 ± 0.27 | -1.32 ± 0.28
55 | UUGUAGCAAUAUUACGCGUG | -0.196 ± 0.079 | -0.498 ± 0.1
56 | GUUUAGCAAUAUUACGGCAG | -2.12 ± 0.26 | -1.66 ± 0.38
57 | UCUAAGCAAUAUUACGUUCG | -1.38 ± 0.12 | -1.12 ± 0.12
58 | AGUAAGCAAUAUUACGAGGA | -2.06 ± 0.33 | -2.55 ± 0.49
59 | UGAAAGCAAUAUUACGGCUG | 0.281 ± 0.088 | 0.316 ± 0.11
60 | GAGCAGCAAUAUUACGUCUU | -3.01 ± 0.19 | -1.23 ± 0.15
61 | CACAAGCAAUAUUACGGGCG | -0.358 ± 0.06 | 0.319 ± 0.07
62 | UACUAGCAAUAUUACGAUAU | -3.18 ± 0.17 | -2.36 ± 0.17
63 | GGGAAGCAAUAUUACGUUUA | -2.23 ± 0.22 | -1.51 ± 0.16
64 | CGCGAGCAAUAUUACGUUGU | -3.93 ± 0.28 | -2.4 ± 0.36
65 | AGACAGCAAUAUUACGCUUC | -3.78 ± 0.28 | -1.86 ± 0.27
66 | AGAGAGCAAUAUUACGUUUU | -3.68 ± 0.35 | –
67 | AGUAAGCAAUAUUACGCUAA | -2.36 ± 0.17 | -2.3 ± 0.19
68 | UAAGAGCAAUAUUACGCCUA | -2.03 ± 0.15 | -1.41 ± 0.12
69 | UUCGAGCAAUAUUACGACUA | 0.544 ± 0.39 | -1.15 ± 0.24
70 | UCGUAGCAAUAUUACGAGCA | -0.579 ± 0.3 | -1.13 ± 0.24
71 | AGUCAGCAAUAUUACGCAAC | -1.65 ± 0.18 | -1.22 ± 0.21
72 | GGGCAGCAAUAUUACGUUUG | -1.17 ± 0.098 | -0.133 ± 0.11
73 | UGGCAGCAAUAUUACGCGAC | -2.66 ± 0.35 | -1.64 ± 0.44
74 | CGACAGCAAUAUUACGCUGC | -3.02 ± 0.25 | -2.24 ± 0.26
75 | ACGAAGCAAUAUUACGCGGG | -1.62 ± 0.086 | -0.782 ± 0.1
76 | CAUGAGCAAUAUUACGUAAG | -0.906 ± 0.096 | -0.568 ± 0.11
